Test results: patent US20140241984A1

Experiments:
[1] = molecular target: α-synuclein fibrils (human) (UniProt P37840); assay: inhibition ELISA; fibrils against monomers
[2] = molecular target: α-synuclein fibrils (human) (UniProt P37840); assay: SPR, BIAcore X100; fibrils immobilised on CM5, mAb injected at 0.01-10 nM

| Substance | Fold Affinity to Fibrils [1] | Kd [2] | koff [2] | kon [2] |
| --- | --- | --- | --- | --- |
| Syn-1 (Mouse anti-α-synuclein; BD Bioscience) (antibody) | 0.476 fold |  |  |  |
| mAb 211 (Santa Cruz Biotechnology) (antibody) |  | 2.56 nM | 0.000422 s⁻¹ | 165000 M⁻¹ s⁻¹ |
